Test results: paper PMC5325305, “Structural and biochemical studies on Vibrio cholerae Hsp31 reveals a novel dimeric form and Glutathione-independent Glyoxalase activity” (PLoS ONE, 2017)

What was measured:
[1] = tested on: Cc1cc(=O)oc2cc(NC(=O)[C@H](C)N)ccc12; experiment: purified protein; settings: pH 8.0, 37°C, 20 mM Tris, 1 mM dithiothreitol, 3% dimethyl sulfoxide
CC(=O)C=O = experiment: purified protein; settings: glutathione-independent, 100 mM sodium phosphate pH 7.5, 1 mM EDTA, 1 mM DTT (printed DDT), 37°C, text lists Km and Vmax values in swapped order, assigned by unit

Substance: VcHsp31 (Vibrio cholerae)
- Km [1]: 112.5 µM
- kcat [1]: 0.00128 s⁻¹
- Km (CC(=O)C=O): 250.8 µM
- kcat (CC(=O)C=O): 0.6628 s⁻¹
